Measurements from article PMC10663500, “High-throughput analysis system of interaction kinetics for data-driven antibody design” (Scientific Reports, 2023).
Changes are numbered by the printed parent chain.

B1: toripalimab Fab H.K63Y (Fab, V domains shown)
VH: QGQLVQSGAEVKKPGASVKVSCKASGYTFTDYEMHWVRQAPIHGLEWIGVIESETGGTAYNQYFKGRVTITADKSTSTAYMELSSLRSEDTAVYYCAREGITTVATTYYWYFDVWGQGTTVTVSS
VL: DVVMTQSPLSLPVTLGQPASISCRSSQSIVHSNGNTYLEWYLQKPGQSPQLLIYKVSNRFSGVPDRFSGSGSGTDFTLKISRVEAEDVGVYYCFQGSHVPLTFGQGTKLEIK
notes: heavy chain of Sm3 with this change; numbers count from the chain's first residue; as the light chain of Sm3; source: Brevibacillus, culture supernatant (ammonium sulfate precipitate); not shown: 6xHis, C-terminal, kept; 6xHN, C-terminal, kept
B2: toripalimab Fab H.F112Y (Fab, V domains shown)
VH: B1 VH with Y63K, F112Y
VL: B1 VL
notes: as for B1
B3: toripalimab Fab H.T106Y (Fab, V domains shown)
VH: B1 VH with Y63K, T106Y
VL: B1 VL
notes: as for B1
B4: toripalimab Fab H.Y109A (Fab, V domains shown)
VH: B1 VH with Y63K, Y109A
VL: B1 VL
notes: as for B1
B5: toripalimab Fab H.W110Y (Fab, V domains shown)
VH: B1 VH with Y63K, W110Y
VL: B1 VL
notes: as for B1
B6: toripalimab Fab H.K65A (Fab, V domains shown)
VH: B1 VH with Y63K, K65A
VL: B1 VL
notes: as for B1
B7: toripalimab Fab H.V114Y (Fab, V domains shown)
VH: B1 VH with Y63K, V114Y
VL: B1 VL
notes: as for B1
B8: toripalimab Fab L.S25A (Fab, V domains shown)
VH: B1 VH with Y63K
VL: B1 VL with S25A
notes: as the heavy chain of Sm3; light chain of Sm3 with this change; numbers count from the chain's first residue; source: Brevibacillus, culture supernatant (ammonium sulfate precipitate); not shown: 6xHis, C-terminal, kept; 6xHN, C-terminal, kept
B9: toripalimab Fab H.F64Y (Fab, V domains shown)
VH: B1 VH with Y63K, F64Y
VL: B1 VL
notes: as for B1
B10: toripalimab Fab H.E33A (Fab, V domains shown)
VH: B1 VH with E33A, Y63K
VL: B1 VL
notes: as for B1
B11: toripalimab Fab H.V104Y (Fab, V domains shown)
VH: B1 VH with Y63K, V104Y
VL: B1 VL
notes: as for B1
B12: toripalimab Fab H.V114A (Fab, V domains shown)
VH: B1 VH with Y63K, V114A
VL: B1 VL
notes: as for B1
B13: toripalimab Fab H.M34A (Fab, V domains shown)
VH: B1 VH with M34A, Y63K
VL: B1 VL
notes: as for B1
B14: toripalimab Fab H.T107A (Fab, V domains shown)
VH: B1 VH with Y63K, T107A
VL: B1 VL
notes: as for B1
B15: toripalimab Fab L.R24A (Fab, V domains shown)
VH: B1 VH with Y63K
VL: B1 VL with R24A
notes: as for B8
B16: toripalimab Fab L.R24Y (Fab, V domains shown)
VH: B1 VH with Y63K
VL: B1 VL with R24Y
notes: as for B8
B17: toripalimab Fab H.G100A (Fab, V domains shown)
VH: B1 VH with Y63K, G100A
VL: B1 VL
notes: as for B1
B18: toripalimab Fab H.G66Y (Fab, V domains shown)
VH: B1 VH with Y63K, G66Y
VL: B1 VL
notes: as for B1
B19: toripalimab Fab H.V104A (Fab, V domains shown)
VH: B1 VH with Y63K, V104A
VL: B1 VL
notes: as for B1
B20: toripalimab Fab H.G66A (Fab, V domains shown)
VH: B1 VH with Y63K, G66A
VL: B1 VL
notes: as for B1
B21: toripalimab Fab L.S25Y (Fab, V domains shown)
VH: B1 VH with Y63K
VL: B1 VL with S25Y
notes: as for B8
B22: toripalimab Fab H.K65Y (Fab, V domains shown)
VH: B1 VH with Y63K, K65Y
VL: B1 VL
notes: as for B1
B23: toripalimab Fab H.F64A (Fab, V domains shown)
VH: B1 VH with Y63K, F64A
VL: B1 VL
notes: as for B1
B24: toripalimab Fab H.T106A (Fab, V domains shown)
VH: B1 VH with Y63K, T106A
VL: B1 VL
notes: as for B1
B25: toripalimab Fab H.T107Y (Fab, V domains shown)
VH: B1 VH with Y63K, T107Y
VL: B1 VL
notes: as for B1
B26: toripalimab Fab H.A105Y (Fab, V domains shown)
VH: B1 VH with Y63K, A105Y
VL: B1 VL
notes: as for B1

Tests used:
[1] = molecular target: T1, mouse programmed cell death protein 1 Fc fusion protein (mPD-1-Fc), mPD-1 C60S (aa 25-167) (Mus musculus, UniProt Q02242, stabilised); experiment: SPR; Carterra LSA; Fab from the ammonium sulfate precipitate of the culture supernatant immobilised on a NiHC200M chip; hPD-1 (1-1024 nM) or mPD-1-Fc (4-1024 nM) as analyte, fourfold dilution series, no regeneration; HBS-EP pH 7.4, 25 °C; medians over the spots of a construct, KD = koff/kon; details: one partner purified
T1 construct: not cleaved; source: Expi293F, purified (Protein A, SEC; dimeric fraction); not shown: Fc (human), C-terminal, kept
Summary of the method: (§1)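 Fabs from Brevibacillus culture supernatants were ammonium sulfate-precipitated, redissolved in HBS-EP and captured in duplicate on a NiHC200M chip (Carterra LSA, 25 °C). Human PD-1 (1–1024 nM) or mouse PD-1-Fc (4–1024 nM) flowed as fourfold series without regeneration, with 10 min association and 5 min dissociation; unconfirmed binders were set to kon 10^3 […], koff 10^−2 s^−1. Rates came from kdka model fits (slow- or fast-dissociation settings, best fit); KD is koff/kon from per-construct medians.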

[2] = molecular target: T2, human programmed cell death protein 1 (hPD-1) C93S (aa 24-167) (Homo sapiens, UniProt Q15116, C93S); experiment: as above; details: one partner purified
T2 construct: made as a fusion with a TEV site and human Fc; the Fc was cut off with TEV protease; source: Expi293F, purified (Protein A, TEV cleavage of Fc, SEC; monomer fractions); not shown: Fc (human), C-terminal, cleaved
T2 sequence (Q15116 24-167 C93S): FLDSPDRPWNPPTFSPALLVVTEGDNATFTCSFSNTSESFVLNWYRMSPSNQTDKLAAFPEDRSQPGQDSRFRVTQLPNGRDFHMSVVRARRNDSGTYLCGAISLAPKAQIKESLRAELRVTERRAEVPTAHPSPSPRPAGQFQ
Summary of the method: as §1

Binder	Kd [1] [nM]	koff [1] [s⁻¹]	kon [1] [M⁻¹ s⁻¹]	Kd [2] [nM]	koff [2] [s⁻¹]	kon [2] [M⁻¹ s⁻¹]
B1	75.7	0.00458	60400	< 0.226	< 1e-05	44300
B2	59.7	0.00308	51700	< 0.731	< 1e-05	13700
B3	140	0.00601	43000	0.833	1.75e-05	21000
B4	49.7	0.00179	36000	0.608	1.41e-05	23200
B5	166	0.00571	34500	< 1.51	< 1e-05	6610
B6	257	0.00911	35400	< 1.5	< 1e-05	6670
B7	235	0.00887	37800	1.23	2.39e-05	19400
B8	65.2	0.00369	56600	< 0.503	< 1e-05	19900
B9	36.3	0.00224	61600	1.17	3.98e-05	34200
B10	103	0.00372	36200	1.37	1.31e-05	9540
B11	96.2	0.00366	38000	1.17	1.81e-05	15500
B12	201	0.00764	38100	< 1.5	< 1e-05	6670
B13	153	0.0068	44300	0.968	3.28e-05	33900
B14	232	0.00703	30300	< 1.53	< 1e-05	6520
B15	198	0.0079	39900	< 0.696	< 1e-05	14400
B16	133	0.0047	35400	< 1.44	< 1e-05	6930
B17	464	0.0353	76100	0.593	1.42e-05	23900
B18	393	0.0111	28100	< 0.85	< 1e-05	11800
B19	81.5	0.00354	43400	4.51	8.98e-05	19900
B20	223	0.00674	30200	< 1.56	< 1e-05	6410
B21	125	0.00412	32900	1.93	1.18e-05	6090
B22	299	0.012	40300	1.14	1.86e-05	16300
B23	59.7	0.00193	32400	< 1.4	< 1e-05	7170
B24	107	0.00423	39700	0.743	1.56e-05	21000
B25	137	0.00432	31600	< 0.315	< 1e-05	31700
B26	95.5	0.00349	36500	< 0.492	< 1e-05	20300
